Measurements taken from patent US11827699 (dated 2023).
Positions count from the first letter of the chain named. Where two headings read alike, the source gives them in different places. Each block holds one binder with its values, some of them ahead of it.

How the values were obtained:
Test in all cases: SPR
[1] = target: T1, human FcγRIIa R131 (human, UniProt P12318)
T1 chain: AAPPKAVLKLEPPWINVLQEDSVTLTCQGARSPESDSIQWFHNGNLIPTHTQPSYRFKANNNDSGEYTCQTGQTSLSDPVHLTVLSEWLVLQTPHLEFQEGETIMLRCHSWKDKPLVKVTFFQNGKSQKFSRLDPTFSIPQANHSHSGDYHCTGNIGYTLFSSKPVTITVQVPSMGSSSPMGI

[2] = target: T2, human FcγRIa (human, UniProt P12314)
T2 chain: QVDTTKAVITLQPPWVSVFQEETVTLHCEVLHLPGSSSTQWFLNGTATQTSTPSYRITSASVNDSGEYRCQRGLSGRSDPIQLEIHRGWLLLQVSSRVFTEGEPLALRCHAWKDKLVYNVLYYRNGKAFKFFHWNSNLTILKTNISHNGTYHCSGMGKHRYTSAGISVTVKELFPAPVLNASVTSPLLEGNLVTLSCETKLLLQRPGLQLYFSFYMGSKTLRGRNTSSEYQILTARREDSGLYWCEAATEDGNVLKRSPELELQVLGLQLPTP

[3] = target: T3, human FcγRIIb (human, UniProt P31994)
T3 chain: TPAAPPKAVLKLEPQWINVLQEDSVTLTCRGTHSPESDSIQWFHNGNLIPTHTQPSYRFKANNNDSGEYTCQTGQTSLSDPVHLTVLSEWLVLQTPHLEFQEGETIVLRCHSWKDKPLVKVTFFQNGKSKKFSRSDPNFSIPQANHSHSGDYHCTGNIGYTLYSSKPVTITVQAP

[4] = target: T3, human FcγRIIb
[5] = target: T3, human FcγRIIb
[6] = target: T2, human FcγRIa
[7] = target: T3, human FcγRIIb
[8] = target: T2, human FcγRIa
[9] = target: T1, human FcγRIIa R131
[10] = target: T2, human FcγRIa
[11] = target: T3, human FcγRIIb
[12] = target: T1, human FcγRIIa R131
[13] = target: T1, human FcγRIIa R131
[14] = target: T4, mouse FcγRIV (mouse, UniProt A0A0B4J1G0)
T4 chain: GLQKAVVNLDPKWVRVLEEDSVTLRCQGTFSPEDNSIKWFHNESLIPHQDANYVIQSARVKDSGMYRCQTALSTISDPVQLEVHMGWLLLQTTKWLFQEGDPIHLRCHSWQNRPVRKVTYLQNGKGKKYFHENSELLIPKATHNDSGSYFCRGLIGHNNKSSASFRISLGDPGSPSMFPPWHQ

[15] = target: T5, mouse FcγRI (mouse, UniProt P26151)
T5 chain: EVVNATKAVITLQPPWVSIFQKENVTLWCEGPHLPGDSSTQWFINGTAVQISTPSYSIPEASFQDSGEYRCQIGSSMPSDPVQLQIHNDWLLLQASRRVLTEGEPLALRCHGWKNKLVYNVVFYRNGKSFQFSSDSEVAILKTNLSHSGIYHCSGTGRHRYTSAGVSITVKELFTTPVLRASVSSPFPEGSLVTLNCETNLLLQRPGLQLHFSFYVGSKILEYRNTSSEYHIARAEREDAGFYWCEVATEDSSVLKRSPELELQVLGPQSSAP

- Kd [1]: 3000 nM
B1: IL6R-BP474 (antibody)
chain 1: QVQLQESGPGLVKPSETLSLTCAVSGHSISHDHAWSWVRQPPGEGLEWIGFISYSGITNYNPSLQGRVTISRDNSKNTLYLQMNSLRAEDTAVYYCARSLARTTAMDYWGEGTLVTVSSASTKGPSVFPLAPSSKSTSGGTAALGCLVKDYFPEPVTVSWNSGALTSGVHTFPAVLQSSGLYSLSSVVTVPSSSLGTQTYICNVNHKPSNTKVDKKVEPKSCDKTHTCPPCPAPDLLGDDSVFLFPPKPKDTLMISRTPEVTCVVVDVSDEDGEVKFNWYVDGVEVHNAKTKPREEQDNSTYRVVSVLTVLHQDWLNGKEYKCKVSNKALPSSIEKTISKAKGQPREPQVYTLPPSRDELTKNQVSLTCLVKGFYPSDIAVEWESNGQPENNYKTTPPVLDSDGSFFLYSKLTVDKSRWQQGNVFSCSVMHEALHNHYTQESLSLSP
chain 2: not shown

- Kd [2]: 0.6 nM
B2: IL6R-BP456 (antibody)
chain 1: B1 chain 1 with S269A, D270E, D298Y, S332R, S333P, P398M
chain 2: not shown

- Kd [3]: 4 nM
B3: IL6R-BP464 (antibody)
chain 1: B1 chain 1 with S269A, D270E, D298Y, S332R, S333P, P398Y
chain 2: not shown

- Kd [4]: 40 nM
B4: IL6R-BP468 (antibody)
chain 1: B1 chain 1 with S332R, S333P, K336T
chain 2: not shown

- Kd [5]: 100 nM
B5: IL6R-BP237 (antibody)
chain 1: B1 chain 1 with L236Y, S269Q, K328A, S332K, S333P
chain 2: not shown

- Kd [5]: 40 nM
B6: IL6R-BP228 (antibody)
chain 1: B1 chain 1 with D235E, L236Y, S269Q, D298Y, K328D, S332R, S333P
chain 2: not shown

- Kd [6]: 4 nM
B7: IL6R-BP267 (antibody)
chain 1: B1 chain 1 with D270E, D298Y, S332A, S333P
chain 2: not shown

- Kd [7]: 100 nM
B8: IL6R-BP367 (antibody)
chain 1: B1 chain 1 with D270E, E271D, D298Y, S332A, S333P
chain 2: not shown

- Kd [8]: 3 nM
B9: IL6R-BP384 (antibody)
chain 1: B1 chain 1 with S332R, S333P, K336R
chain 2: not shown

- Kd [9]: 600 nM
B10: IL6R-BP469 (antibody)
chain 1: B1 chain 1 with S332R, S333P, E335S
chain 2: not shown

- Kd [10]: 73 nM
- Kd [11]: 41 nM
- Kd [12]: 810 nM
B11: IL6R-BP152 (antibody)
chain 1: B1 chain 1 with L236Y, D270H, G273P, K328A, S332K, S333P
chain 2: not shown

- Kd [1]: 800 nM
B12: IL6R-BP471 (antibody)
chain 1: B1 chain 1 with S332R
chain 2: not shown

- Kd [5]: 60 nM
B13: IL6R-BP239 (antibody)
chain 1: B1 chain 1 with L236Y, S269Q, K328A, S332R, S333P
chain 2: not shown

- Kd [10]: 84 nM
- Kd [11]: 40 nM
- Kd [12]: 670 nM
B14: IL6R-BP151 (antibody)
chain 1: B1 chain 1 with L236Y, D270H, G273P, D298Y, K328A, S332K, S333P
chain 2: not shown

- Kd [13]: 600 nM
B15: IL6R-BP223 (antibody)
chain 1: B1 chain 1 with D235E, L236Y, D298Y, K328A, S332R, S333P
chain 2: not shown

- Kd [1]: 1000 nM
B16: IL6R-BP475 (antibody)
chain 1: B1 chain 1 with A329G, S333P
chain 2: not shown

- Kd [10]: 320 nM
- Kd [11]: 31 nM
- Kd [12]: 550 nM
B17: IL6R-BP150 (antibody)
chain 1: B1 chain 1 with D235E, L236Y, D270H, G273P, D298Y, K328A, S332K, S333P
chain 2: not shown

- Kd [3]: 4 nM
B18: IL6R-BP455 (antibody)
chain 1: B1 chain 1 with S269A, D270E, D298Y, S332R, S333P, P398L
chain 2: not shown

- Kd [7]: 100 nM
B19: IL6R-BP350 (antibody)
chain 1: B1 chain 1 with S269E, D270E, D298Y, S332A, S333P
chain 2: not shown

- Kd [2]: 0.9 nM
B20: IL6R-BP447 (antibody)
chain 1: B1 chain 1 with S269A, D270E, D298Y, S332R, S333P, P398A
chain 2: not shown

- binding result [14]: no binding
- binding result [15]: no binding
B21: VH3/L(WT)-mIgG1 (antibody)
chain 1: QVQLQESGPGLVKPSETLSLTCAVSGHSISHDHAWSWVRQPPGEGLEWIGFISYSGITNYNPSLQGRVTISRDNSKNTLYLQMNSLRAEDTAVYYCARSLARTTAMDYWGEGTLVTVSSAKTTPPSVYPLAPGSAAQTNSMVTLGCLVKGYFPEPVTVTWNSGSLSSGVHTFPAVLQSDLYTLSSSVTVPSSTWPSETVTCNVAHPASSTKVDKKIVPRDCGCKPCICTVPEVSSVFIFPPKPKDVLTITLTPKVTCVVVDISKDDPEVQFSWFVDDVEVHTAQTQPREEQFNSTFRSVSELPIMHQDWLNGKEFKCRVNSAAFPAPIEKTISKTKGRPKAPQVYTIPPPKEQMAKDKVSLTCMITDFFPEDITVEWQWNGQPAENYKNTQPIMDTDGSYFVYSKLNVQKSNWEAGNTFTCSVLHEGLHNHHTEKSLSHSPGK
chain 2: not shown

- binding result [14]: no binding
- binding result [15]: no binding
B22: VH3/L(WT)-mIgG1-mF44 (antibody)
chain 1: B21 chain 1 with A323D
chain 2: not shown

- binding result [14]: no binding
- binding result [15]: no binding
B23: VH3/L(WT)-mIgG1-mF46 (antibody)
chain 1: B21 chain 1 with S235D, A323D
chain 2: not shown
